The nature of one series: Mouse PK model. In kind it is in vivo. The settings on record: mouse PK model estimate. The source says:
A PK model was designed as a two compartment model with intercompartmental distribution (Q) between the first compartment (Central Compartment, V1) and the second compartment (Peripheral Compartment, V2). To capture intraperitoneal (IP) or subcutaneous (SC) injection routes, a third compartment (Depot Compartment) was included with a first-order rate constant (Ka) linking the third compartment uni-directionally to the first compartment. The model also included a constant F to account for loss in the amount of drug available to diffuse from the third compartment (Depot Compartment) to the first compartment (Central Compartment, V1) due to IP or SC injection. The total amount of available drug in the third compartment (Depot Compartment) is described as F×Dose. For intravenous injections (IV), the third compartment (Depot Compartment) was omitted.
Drug clearance (CL) from the first compartment (Central Compartment, V1) was modeled differently for each species. In the mouse model, a time-dependent increase in clearance due to the formation of anti-drug antibodies was accounted for as follows:
For monkeys, linear clearance from the first compartment (Central Compartment, V1) was assumed.
PK was also compared in tumor-bearing versus non-tumor-bearing mice. […] All treatments were administered IP. PK was determined in tumor-bearing mice in all groups and compared to the predicted PK in non-tumor bearing mice.

The target of the next series is T1, PD-L1/PD-1 interaction (Homo sapiens, UniProt Q9NZQ7).
T1 construct: expressed in transfected cells
T1 sequence (Q9NZQ7 19-290): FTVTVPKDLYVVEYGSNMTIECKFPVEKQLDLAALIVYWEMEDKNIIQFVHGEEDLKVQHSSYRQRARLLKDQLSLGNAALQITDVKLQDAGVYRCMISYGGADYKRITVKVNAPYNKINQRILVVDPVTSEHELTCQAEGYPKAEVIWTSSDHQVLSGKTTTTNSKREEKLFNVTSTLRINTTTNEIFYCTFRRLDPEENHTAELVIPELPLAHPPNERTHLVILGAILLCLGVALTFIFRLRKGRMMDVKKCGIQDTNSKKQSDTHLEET
As to the kind of experiment: PD-L1/PD-1 binding and blocking on CHO/PD-L1 cells. The settings on record: fluorescently conjugated PD-1-Fc; FIG. 7. As to the method:
Binding of selected immunomodulatory fusion proteins to cells expressing PD-L1 was assessed to test for blocking of the PD-L1/PD-1 interaction. […] Samples were acquired on a flow cytometer and MFIs of the fluorescently labeled PD-1 were determined by Flowjo software analysis.
The multivalent variant CD80 IgSF domain fusion proteins were assessed to test for blocking of the PD-L1/PD-1 and CTLA-4/CD80 interaction performed substantially as described in Example 15. CHO/OKT3/PD-L1 and CHO/CTLA-4 cells were counted and plated at 100,000 cells/well and then incubated with fluorescently conjugated PD-1-Fc and CD80-Fc. Exemplary multivalent variant CD80 IgSF domain fusion proteins were incubated with the cells for 30 minutes. […] Cells were washed and incubated with 100 nM fluorescently conjugated PD-1-Fc and CD80-Fc competitor for 30 minutes. Cells were then washed and samples were acquired on a flow cytometer and MFIs of the fluorescently labeled molecules were determined.

Series [1] concerns PBMC obtained from CMV seropositive donor. As to the kind of experiment: Cytomegalovirus (CMV) antigen-specific T cell functional assay. Format: cell-based, human. As to the method:
Peripheral blood mononuclear cells (PBMC) obtained from CMV seropositive donor were thawed and CMV lysate added at 1 μg/mL to 250,000/well PBMC. […] In addition, the anti-PD-1 antibody alone was also tested. An Fc only molecule was also tested as control. Supernatant was collected 48 hours after incubation to assay IL-2 by ELISA.
The multivalent variant CD80 IgSF domain fusion proteins were assessed to test for IL-2 production in the CMV assay substantially as described in Example 22. Exemplary multivalent variant CD80 IgSF domain fusion proteins generated as described above were tested at various concentrations from 100000 pM to 46 pM

For another series, the system named is huPD-L1/B16-F10 cells. Description: huPD-L1/B16-F10 melanoma model. Format: in vivo, mouse. As to the method:
This variant is an exemplary variant identified to have increased binding affinity for PD-L1 compared to wild-type CD80 and activity to block PD-L1 and CTLA-4 and to provide PD-L1-dependent T cell activation via CD28 costimulatory receptor. To test the anti-tumor activity of the exemplary variant, it was evaluated alone or in combination with an anti-mouse PD-1 monoclonal antibody (clone RMP1-14, rat IgG2a) in mice bearing human PD-L1 (huPD-L1)-expressing B16-F10 tumors, which is a syngeneic mouse melanoma model. This model is an aggressive and, in many cases, a treatment-resistant model.
Subconfluent cells (˜80% confluent) were harvested on the day of implantation (study day 0). The cells were washed twice and brought to a final concentration of 5×10^6 cells/mL in DPBS. Female C57BL/6NJ mice (Jackson Labs, USA) were implanted subcutaneously with approximately 0.5×10^6 huPD-L1/B16-F10 cells. […] The B16-F10 cells at time of implant were evaluated to confirm expression of huPD-L1 by flow cytometry. […]
Tumors were measured with electronic calipers two-dimensionally twice weekly, beginning on day 6 post-tumor cell implant. Tumor volume was calculated as length×(width×2)×0.5, with the length being the longer of the two measurements. […] Calculations for the mean and median were determined on the last day in which at least 70% of mice were alive on study (day 18 post-tumor cell implant).

The test system of the next series is MC38 hPD-L1 tumor cells. Description: Flow cytometry of tumors and draining lymph nodes of treated mice. In kind it is in vivo, mouse. The following applies: three days following the 2nd dose; vs Fc control or anti-PD-L1. The source says: Tissues were processed to single cell suspensions (tumors were enzymatically digested as a part of the processing, whereas draining LN were not), and subjected to multi-color flow cytometric analysis of CD8+ T cells on the CD45+ cell subset (immune cells in either the LN or tumor), as well as % hIgG+ staining on the CD45− cell subset (tumor cells) to detect molecules (CD80-IgV-Fc or anti-PD-L1) bound to the tumor cells.
In general terms: Flow cytometry measures light scatter and fluorescence of single cells or particles in a stream.

The text below walks through data of patent publication US20220177587A1, “METHODS AND USES OF VARIANT CD80 FUSION PROTEINS AND RELATED CONSTRUCTS” (Alpine Immune Sciences, Inc., priority 2018, published 2022).

With “H18Y/A26E/E35D/M47L/V68M/A71G/D90G: variant CD80 IgV-Fc (inert), IgV SEQ ID NO:491”, in “Mouse PK model”, the CL was 1.34 mL/day, the F is 99%, the Ka is 4.53 day⁻¹ and the Q is 26.5 mL/day. Further, in “Mouse PK model”, the V1 is 1.94 mL and the V2 is recorded as 8.88 mL. Moreover, the β in “Mouse PK model” (time-dependent clearance constant) was 0.0685 day⁻¹. Besides, the “blocking of binding of PD-1 to PD-L1” value with PD-L1/PD-1 interaction is recorded as “antagonize or block binding of PD-1 to PD-L1”. Moreover, the IL-2 production result in series [1] (alone, 48 hours, FIG. 23) was “showed augmentation of IL-2 production compared to the Fc only control”. Besides, the IL-2 production result in series [1] (in combination with 50 nM anti-PD-1 antibody (nivolumab)) is “greater increase in IL-2 production compared to levels of IL-2 production in the presence of either molecule alone”. Further, the tumor growth inhibition with huPD-L1/B16-F10 cells (in combination with anti-PD-1 mAb, day 18) was 92%. Further, the “tumor growth (median tumor volumes)” value in the series on huPD-L1/B16-F10 cells (in combination with anti-mouse PD-1 mAb, IP days 6, 8, 11) is “significantly reduced tumor growth”. Besides, the “percentages of CD8+ T cells in TIL and LN” value in the series on MC38 hPD-L1 tumor cells is listed as “significantly greater”.
